Biological target: Kv1.2-HA (delayed rectifier-type potassium channel Kv1.2 with HA tag) (UniProt P63142)
Test: cell-based or functional assay

inhibition of outward current in Xenopus oocytes, 8 min after the addition of 100 nM PMA: 95%
Substance: PYK2 (wild type, full length)
